From IntAct's records for PubMed 11231056

B1: Platelet-activating factor acetylhydrolase IB subunit beta (Mus musculus), P63005 (parent)
chain: MVLSQRQRDELNRAIADYLRSNGYEEAYSVFKKEAELDMNEELDKKYAGLLEKKWTSVIRLQKKVMELESKLNEAKEEFTSGGPLGQKRDPKEWIPRPPEKYALSGHRSPVTRVIFHPVFSVMVSASEDATIKVWDYETGDFERTLKGHTDSVQDISFDHSGKLLASCSADMTIKLWDFQGFECIRTMHGHDHNVSSVAIMPNGDHIVSASRDKTIKMWEVQTGYCVKTFTGHREWVRMVRPNQDGTLIASCSNDQTVRVWVVATKECKAELREHEHVVECISWAPESSYSSISEATGSETKKSGKPGPFLLSGSRDKTIKMWDVSTGMCLMTLVGHDNWVRGVLFHSGGKFILSCADDKTLRVWDYKNKRCMKTLNAHEHFVTSLDFHKTAPYVVTGSVDQTVKVWECR
partner: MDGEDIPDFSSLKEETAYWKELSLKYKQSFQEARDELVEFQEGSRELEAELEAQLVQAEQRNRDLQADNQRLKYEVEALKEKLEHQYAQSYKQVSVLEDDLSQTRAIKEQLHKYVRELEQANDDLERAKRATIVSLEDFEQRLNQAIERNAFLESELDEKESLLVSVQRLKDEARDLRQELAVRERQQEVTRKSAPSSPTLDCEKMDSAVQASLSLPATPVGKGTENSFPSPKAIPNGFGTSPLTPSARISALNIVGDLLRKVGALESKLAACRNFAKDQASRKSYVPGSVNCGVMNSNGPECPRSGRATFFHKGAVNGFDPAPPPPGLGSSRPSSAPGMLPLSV

Variants of: B1
Settings: with ndel1_mouse Ndel1, Q9ERR1

Effect of a mutation on the interaction, disrupting interaction:
MVLSQRQRDELNRAIADYLRSNGYEEAYSVFKKEAELDMNEELDKKYAGLLEKKWTSVIRLQKKVMELESKLNEAKEEFTSGGPLGQKRDPKEWIPRPPEKYALSGHRSPVTRVIFHPVFSVMVSASEDATIKVWDYETGDFERTLKGHTDSVQDISFDHSGKLLASCPADMTIKLWDFQGFECIRTMHGHDHNVSSVAIMPNGDHIVSASRDKTIKMWEVQTGYCVKTFTGHREWVRMVRPNQDGTLIASCSNDQTVRVWVVATKECKAELREHEHVVECISWAPESSYSSISEATGSETKKSGKPGPFLLSGSRDKTIKMWDVSTGMCLMTLVGHDNWVRGVLFHSGGKFILSCADDKTLRVWDYKNKRCMKTLNAHEHFVTSLDFHKTAPYVVTGSVDQTVKVWECR [S169P]
MVLSQRQRDELNRAIADYLRSNGYEEAYSVFKKEAELDMNEELDKKYAGLLEKKWTSVIRLQKKVMELESKLNEAKEEFTSGGPLGQKRDPKEWIPRPPEKYALSGHRSPVTRVIFHPVFSVMVSASEDATIKVWDYETGDFERTLKGRTDSVQDISFDHSGKLLASCSADMTIKLWDFQGFECIRTMHGHDHNVSSVAIMPNGDHIVSASRDKTIKMWEVQTGYCVKTFTGHREWVRMVRPNQDGTLIASCSNDQTVRVWVVATKECKAELREHEHVVECISWAPESSYSSISEATGSETKKSGKPGPFLLSGSRDKTIKMWDVSTGMCLMTLVGHDNWVRGVLFHSGGKFILSCADDKTLRVWDYKNKRCMKTLNAHEHFVTSLDFHKTAPYVVTGSVDQTVKVWECR [H149R]
MVLSQRQRDELNRAIADYLRSNGYEEAYSVFKKEAELDMNEELDKKYAGLLEKKWTSVIRLQKKVMELESKLNEAKEEFTSGGPLGQKRDPKEWIPRPPEKYALSGHRSPVTRVIFHPVFSVMVSASEDATIKVWDYETGDFERTLKGHTDWVQDISFDHSGKLLASCSADMTIKLWDFQGFECIRTMHGHDHNVSSVAIMPNGDHIVSASRDKTIKMWEVQTGYCVKTFTGHREWVRMVRPNQDGTLIASCSNDQTVRVWVVATKECKAELREHEHVVECISWAPESSYSSISEATGSETKKSGKPGPFLLSGSRDKTIKMWDVSTGMCLMTLVGHDNWVRGVLFHSGGKFILSCADDKTLRVWDYKNKRCMKTLNAHEHFVTSLDFHKTAPYVVTGSVDQTVKVWECR [S152W]
